From US12433934B2, “Methods and compositions for preventing and treating atherosclerosis and related diseases” (Shanghai Puyou Biomedical Co., Ltd., priority 2018, dated 2025)
Entries after “also recorded” stand apart in the source; their conditions may differ.

What was measured:
Assay type in all cases: in vivo
ApoE−/− mice [1] = test: Plasma oxLDL and LDL levels (ELISA) in ApoE−/− mice after 7 days of administration
Excerpt: ApoE−/− mice were divided into two groups, the control group and the sDSS1 protein administration group. […] At the end of the administration, the plasma levels of oxLDL and LDL in mice were detected.
Experimental animal: ApoE−/− mice, 8-10 weeks old, male, were purchased from Nanjing Biomedical Research Institute of Nanjing University. The animals were housed in an animal room for one week before the experiment.
Experimental materials: sDSS1 protein, oxLDL ELISA kit (Wuhan Elabscience Biotechnology Co., Ltd., Article No.: E-EL-M0066c), LDL ELISA kit (Wuhan Elabscience Biotechnology Co., Ltd., product No.: E-EL-M1363c)
Experimental method: the ApoE−/− mice were randomly divided into two groups, a control group and a sDSS1 protein group. For 7 days, 200 μl of normal saline was intraperitoneally injected in control group once a day, and 10 mg/kg of the sDSS1 protein was intraperitoneally injected in sDSS1 protein group once a day. After 7 days of administration, the bloods of mice were collected, and plasma was separated with EDTA-Na as an anticoagulant. The plasma oxLDL level was measured by using the oxLDL ELISA kit, and the plasma LDL level was measured by the LDL ELISA kit.
100 μl of oxLDL standards or samples were added in each well, and incubated for 90 min at 37° C.; the liquid in the well was discarded, 100 μl of biotinylated oxLDL antibody working liquid was added, and incubated at 37° C. for 60 min; washing 3 times; 100 μl of enzyme binding working solution was added, and incubated at 37° C. for 30 min; washing 5 times; 90 μl of substrate solution was added, and incubated at 37° C. for 15 min; 50 μl of termination solution was added, and the OD value was immediately measured at 450 nm wavelength; a standard curve was established with standard products, and the oxLDL level of each sample was calculated according to the standard curve.
100 μl of LDL standards or samples were added into each well, and incubated for 90 min at 37° C.; the liquid in the well was discarded, 100 μl of biotinylated LDL antibody working liquid was added, and incubated at 37° C. for 60 min; washing 3 times; 100 μl of enzyme binding working liquid was added, and incubated at 37° C. for 30 min; washing 5 times; 90 μl of substrate solution was added, and incubated at 37° C. for 15 min; 50 μl of termination solution was added, and the OD value was immediately measured at 450 nm wavelength; a standard curve was established by using standard products, and the LDL level of each sample was calculated according to the standard curve. The oxLDL/LDL ratio=oxLDL concentration (ng/ml)÷LDL concentration (ng/ml) 5.2 Experimental Results

ApoE−/− mice [2] = test: Atherosclerotic plaques of the aorta (en face oil red O staining) in high-fat diet ApoE−/− mice; conditions: 13 weeks
Experimental: FIGS. 15-16. The sDSS1 protein inhibits the formation of atherosclerotic plaques in ApoE−/− mice. […] At the end of the injection, the aorta was dissected for oil red O staining, and the area of plaques was calculated.
Experimental animals: ApoE−/− mice, 8-week-old, male, were purchased from Nanjing Biomedical Research Institute of Nanjing University. The experimental animals were housed in an animal room for one week before the experiment.
Experimental method: ApoE−/− mice were fed with high-fat diet containing 0.25% cholesterol starting from the age of 9 weeks. From the 10th week of high-fat diet feeding, the mice were randomly divided into three groups according to the total cholesterol level, with 10 mice in each group. […] At the 22nd week of high-fat diet feeding, that is, the 13th week of administration, the animals were executed and dissected, and the whole aorta was separated. The separated aorta was stained with en face oil red O to evaluate the formation of atherosclerotic plaques.

[3] = Toxic reaction in animal experiments
Excerpt: The sDSS1 protein used in the following examples is produced and quality controlled by the company itself. Upon detection, the purity of the protein is more than 95%, and endotoxins (the content of endotoxins is less than 3 EU/mg protein) and other impurity residues meet the standards.

B1: sDSS1 protein: sDSS1 protein produced by the company itself, purity more than 95%; sequence of human sDSS1 protein is SEQ ID NO:1 (protein, listed as Homo sapiens)
chain: MSEKKQPVDLGLLEEDDEFEEFPAEDWAGLDEDEDAHVWEDNWDDDNVEDDFSNQLRATVLLMILVCETPYGCYVLHQKGRMCSAFLCC
ApoE−/− mice [1]; sDSS1 10 mg/kg (10 mpk) intraperitoneal once a day
  Plasma LDL level vs control group: no significant difference; also recorded: did not cause significant changes
ApoE−/− mice [1]; sDSS1 10 mg/kg intraperitoneal once a day
  Plasma oxLDL/LDL ratio vs control group: significantly lower
ApoE−/− mice [1]; sDSS1 30 mg/kg (30 mpk) intraperitoneal once a day
  Plasma LDL level vs control group: did not cause significant changes
ApoE−/− mice [1]; sDSS1 30 mg/kg (30 mpk, high dose) intraperitoneal once a day
  Plasma oxLDL level vs control group: significantly reduced
ApoE−/− mice [1]; sDSS1 high dose (30 mpk) intraperitoneal once a day
  Plasma oxLDL/LDL ratio vs control group: significantly lower
ApoE−/− mice [2]; sDSS1 3 mg/kg intraperitoneal once a day, high-fat diet
  Area of atherosclerotic plaques (en face oil red O) vs model group: significantly reduced
ApoE−/− mice [2]; sDSS1 3 mg/kg intraperitoneal once a day, **P<0.01
  Plaque area ratio (oil red O stained area / total aortic area) vs model group: significantly smaller
ApoE−/− mice [2]; sDSS1 3 mg/kg vs ATV 40 mg/kg
  Plaque area ratio, sDSS1 protein group vs positive drug group: no significant difference
ApoE−/− mice [2]; sDSS1 3 mpk vs ATV 40 mpk
  Effect on plaque area in certain areas of the aorta vs positive drug: even better
[3]
  Animal toxic reaction: without causing obvious animal toxic reaction
